Results reported in IntAct's records for PubMed 11483518.

B1: POU domain class 2-associating factor 1 (Homo sapiens), Q16633 (parent)
chain: MLWQKPTAPEQAPAPARPYQGVRVKEPVKELLRRKRGHASSGAAPAPTAVVLPHQPLATYTTVGPSCLDMEGSVSAVTEEAALCAGWLSQPTPATLQPLAPWTPYTEYVPHEAVSCPYSADMYVQPVCPSYTVVGPSSVLTYASPPLITNVTTRSSATPAVGPPLEGPEHQAPLTYFPWPQPLSTLPTSTLQYQPPAPALPGPQFVQLPISIPEPVLQDMEDPRRAASSLTIDKLLLEEEDSDAYALNHTLSVEGF
partner: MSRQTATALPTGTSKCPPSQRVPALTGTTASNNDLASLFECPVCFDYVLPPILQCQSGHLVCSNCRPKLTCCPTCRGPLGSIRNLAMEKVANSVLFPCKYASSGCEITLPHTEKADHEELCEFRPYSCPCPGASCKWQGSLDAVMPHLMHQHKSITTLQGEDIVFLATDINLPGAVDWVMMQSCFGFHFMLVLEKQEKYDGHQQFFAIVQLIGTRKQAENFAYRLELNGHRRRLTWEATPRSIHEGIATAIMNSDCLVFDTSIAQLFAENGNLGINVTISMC

Variants of: B1
Settings: with siah1_human SIAH1, Q8IUQ4

Variant | effect of a mutation on the interaction
MLWQKPTAPEQAPAPARPYQGVRVKEPVKELLRRKRGHASSGAAPAPTAVELPHQPLATYTTVGPSCLDMEGSVSAVTEEAALCAGWLSQPTPATLQPLAPWTPYTEYVPHEAVSCPYSADMYVQPVCPSYTVVGPSSVLTYASPPLITNVTTRSSATPAVGPPLEGPEHQAPLTYFPWPQPLSTLPTSTLQYQPPAPALPGPQFVQLPISIPEPVLQDMEDPRRAASSLTIDKLLLEEEDSDAYALNHTLSVEGF [V51E] | disrupting interaction
